According to patent publication CN101627111A (CENTOCOR INC, dated 2010):

Molecular target: human tissue factor on HCT 116 human colon carcinoma cells (human, UniProt P13726 33-295)
Assay: cell-based or functional assay

B1: CNTO 860 produced in YB2/0-derived host cell line C1083B (antibody, human IgG1, kappa, V domains shown)
VH: QVQLVESGGGVVQPGRSLRLSCKASGFNIKDYYMHWVRQAPGKGLEWIGLIDPENGNTIYDPKFQGRFTISADNSKNTLFLQMDSLRPEDTAVYYCARDNSYYFDYWGQGTPVTVSS
VL: DIQMTQSPSSLSASVGDRVTITCKASQDIRKYLNWYQQKPGKAPKLLIYYATSLADGVPSRFSGSGSGTDYTFTISSLQPEDIATYYCLQHGESPYTFGQGTKLEITR
modifications: Fc N-glycan about 40% fucosylated
ADCC potency (EC50 and maximal lysis) against C463-derived CNTO 860: 20 to 60 倍
